Laboratory results from US20090215115A1, “SIALYLTR[…] SEQUENCE MOTIFS” (National Research Council of Canada, priority 2004, published 2009).

B1: Cst-I O:36: α-2,3-sialyltransferase Cst-I from Campylobacter jejuni strain O:36, amino acid sequence of FIG. 2, SEQ ID NO:6 (protein, listed as Campylobacter jejuni)
chain: MTRTRMENELIVSKNMQNIIIAGNGPSLKNINYKRLPREYDVFRCNQFYFEDKYYLGKKIKAVFFNPGVFLQQYHTAKQLILKNEYEIKNIFCSTFNLSFIESNDFLHQFYNFFPDAKLGYEVIENLKEFYAYIKYNEIYFNKRITSGVYMCAIAIALGYKTIYLCGIDFYEGDVIYPFEAMSTNIKTIFPGIKDFKPSNCHSKEYDIEALKLLKSIYKVNIYALCDDSILANHFPLSININNNFTLENKHNNSINDILLTDNTPGVSFYKNQLKADNKIMLDFYNILHSKDNLIKFLNKEIAVLKKQTTQRAKTRIQNHLSYKLGQALIINSKSVLGYLSLPFIILSIVISHKQEQKAYKFKVKKNPNLALPPLETYPDYKEALKEKECFTYKLGEEFIKASKNWYGGGYIKFYFKDVSRLKREIKEK
modifications: sialyltransferase polypeptide sequence from strain O36
B2: Cst-I O:19: α-2,3-sialyltransferase Cst-I from Campylobacter jejuni strain O:19, amino acid sequence of FIG. 3, SEQ ID NO:8 (protein, listed as Campylobacter jejuni)
chain: MTRTRMENELIVSKNMQNIIIAGNGPSLKNINYKRLPREYDVFRCNQFYFEDKYYLGKKIKAVFFNPGVFLQQYHTAKQLILKNEYEIKNIFCSTFNLPFIESNDFLHQFYNFFPDAKLGYEVIENLKEFYAYIKYNEIYFNKRITSGVYMCAIAIALGYKTIYLCGIDFYEGDVIYPFEAMSTNIKTIFPGIKDFKPSNCHSKEYDIEALKLLKSIYKVNIYALCDDSILANHFPLSININNNFTLENKHNNSINDILLTDNTPGVSFYKNQLKADNKIMLNFYNILHSKDTLIKFLNKEIAVLKKQTTQRAKARIQNHLSYKLGQALIINSKSVLGFLSLPFIILSIVISHKQEQKAYKFKVKKNPNLALPPLETYPDYNEALKEKECFTYKLGEEFIKAGKNWYGEGYIKFIFKDVPRLKREFEKGE
modifications: sialyltransferase polypeptide sequence from strain O19

Experiment: α-2,3-sialyltransferase activity assay with capillary electrophoresis detection
Format: biochemical
Settings: lysates of E. coli expressing the Cst-I protein; for sialyltransferase activity: acceptor 1 mM Lac-FCHASE, donor 0.2 mM CMP-Neu5Ac, 37° C., pH 7
Protocol: Assays. Protein concentration was determined using the bicinchoninic acid protein assay kit (Pierce, Rockford, Ill.). For all of the enzymatic assays, one unit of activity was defined as the amount of enzyme that generated one […] of product per minute. FCHASE-labelled oligosaccharides are prepared as described in Gilbert et al. (1997) Eur. J. Biochem. 249: 187-194. p-Nitrophenol-glycosides (p-NP-glycosides) were obtained from Sigma-Aldrich.
The -2,3-sialyltransferase activity was assayed at 37° C. using 1 mM Lac-FCHASE (6-(5-fluorescein-carboxamido)-hexanoic acid succimidyl ester), 0.2 mM CMP-Neu5Ac, 50 mM MOPS pH 7, 10 mM MnCl2 and 10 mM MgCl2 in a final volume of 10 μL. After 5 min the reaction mixtures with fluorogenic acceptors were diluted with 10 mM NaOH and analyzed by capillary electrophoresis performed using the separation conditions as described previously (Gilbert et al. (1997) supra.).

Molecule	transfer of Neu5Ac from CMP-Neu5Ac to an acceptor	sialyltransferase activity [mU/ml]
B1	catalyze the transfer of Neu5Ac from CMP-Neu5Ac to an acceptor	50.3
B2	catalyze the transfer of Neu5Ac from CMP-Neu5Ac to an acceptor	324.9
